Test: soluble on expression in E. coli; label from the status in PepcDB or PDB records

Sequence | soluble on expression in E. coli
MNVNKPTTEKKLIDLNNDIIHNFDVSIVMSFYKRYTEFRKVLPHNAPYLQRNGIEVIIVLDDPDEKSELLMLLQNYPFINWKLIINERKHAPRNHASVLNVGLKHATKKYILQIDPEVEFLTDIIWQMRDAIEKYPMHYILAMMAYVPYEQELTENNIKELDFIPWGNLMVERNHLYKLHGYDETFITWGGEDNNMRARLDMSGIKKFILPEAKTIHREKNYDPNERSKRINKHSISDWRKMNYPSEAIANKDIWGSEFNKVIYDWQDNQYAKDLCYTYLQQFIGFEIRHPAAFRKRHKKIVLCQAYNEEKLIEGFLTNMANYFDGIILLDDESTDRTWDLAIHDKIILKVKKKRSGFNDLENRNILLDLSAFFQSEWFCFMDIDERFDERFTNFSEFENNKEIHVVSFRGVYLWNDEQSYKGDIPNSNKGILTVYRMFRPIGHTHINTHKKLHFIATPYFTNTWQSNILFKDYGSMKENDRIRKYERYIQEDQQKDMSSGYDYLLNSENLYQLDKIEEYLEHHHHHH | not soluble
MSLDPIEFIQKSASSIASTMHKLKLKYNPFSEKPIRGNTKFFVGRVSELREIGEILGSALHGSVANAAIVGTKGIGKSSMLNIIYYATKKQGHWVVEMTASQVTPRQFLIQLLYNILTENIITMSGTIKSDYMEHSSRILDMYRKLNNYGDKVPIHYPRERIERDLEYLINEVKSPDKLCIILIDEADQFAKKSCLSLLQFFHSFLYEEGILTFMAGSPTLMDDLTKISPPIKDRIPKIINMPPLSKDESYDLIRRRLEDAHIDGAEEFEPFTEEAIHKIVEECDGIPRKIIMTCSESISIAIRKGLTKIDEKVVKEAMHSLGISVGHQILNHLTPAQSEIVRAMAELGGSATVTQLAEYLKKSPSTIGTHLSDIYEMGYIYKEREGNNVYYKLSKELRDVLIGEDDEGHHHHHH | soluble
MTDHALLLVNLGSPASTQVADVRSYLNQFLMDPYVIDIPWPLRRLLVSLILIKRPEQSAHAYASIWWDEGSPLVVLSKRLQQAMKKEWSHGPVELAMRYGEPSIETVLTRLSEQGFKKVTLAPLYPQFADSTVTTVIEEAKRVVRAKSLKMQFSVLQPFYDQPEYVSALVESVRPHLEQPYDHLLLSFHGLPERHLHKRDPTGKHCLKDDCCMTAPAQVVATCYRAQCLQSAAAFAKRMGIPDGKWSVSFQSRLGRAKWIEPYTEARLDELAAQGVKKLLVMCPAFVADCIETLEEIGDRGAEQFKEAGGEELILVPCLNDDPNWAKELNRLCERAPLML | not soluble
SQDPSGDKVCRAGGEEDGEDGQHTSRVHDTEADPHHTEASSHRTEGSSHLTETSSRPSEAENGHDNSPHVNRAQDVGTQASPQGSLNSRVPVEARVVVEEAAIAPQGEQAPIIPGPSGDAATTAGSRLLEFSVTVPFRTAVEANIACRTLASNIQQQQVMVQQEFTVNDTILTVRWTTEDPVLFRTSINAFLDQLSLVVRNIPRPVFMAVFKQGRGRNN | soluble
MGDTDRKLFVLDTNILLHEPFAIFSFQEHDVVIPMTVLEELDRIKDSKRDVARDARVAIRALEDLFKDATPDEISEGIPVSKEKPDQGSISILADFELQETVKAFADKAGDNRILNAVLYLQNKRAPREVVLITKDINMRLRAKGAGVRFVEDYRTDQLIDDIQYLTKGFQQREGDFWSGIDEVESYALGGKTYHKLSREPFDPTFINQYVIDEDSDFAGRVETINEDKLTLLDLSRERMMHRRAWDITPKNIYQAMALDALLDPDIDLVILTGAAGSGKTLLAMAAALEQTIEKGMFDKIIVTRNTPDIGESIGFLPGSEEEKMMPWLAAVTDTLEALHKHDHCTEGSLKYICDKANIQFKSINFMRGRSIQNAFVLLDECQNLTASQIKTIITRCGEGTKIVCSGNLAQIDSHYLTPVTSGLTYMVERFKNFEGSANIHLNGVVRSRLAEFAEENL | soluble
MEMSSNNKPVAGAEIKVAGASPTDSDQEGRFILNFTASLPGDPLMINDIYKKGFKIVNYEKVANWNISSASELKIVLGRTEVINALRKKYYDIGESNSEKEYRKTLAELEELKKQNALSAVEYDQKVDSMSKSMMEWQKRLEIYALKFACINRDELDAMEKQAMELLDHGDVHGAIRLYEEMKLDSTMTLKIAVRQEAKEDMKLLLPSLVNNFQLLKQADDKVACDSVAHLIYEMAADIKLKLMSVEWFFQRNDPSEVLDQYSLIVKDTQSMQEIELVENSLQQSLKEVKLKGELKKKAQLVFERIEDRKKWISIKEKI | not soluble
DRGRMANIFGANNFYYAKSQAMLYTVSQNADFITAGLVDPVFLPLGNQQRAATHLNEPKSQKILFIVAESWGLPANPELQNATFAKLLAQKDRFSVWESGSFPFIGATVEGEMRELCAYGGLRGFALRRAPDEKFARCLPNRLKQEGYATFAMHGAGSSLYDRFSWYPRAGFQEIKTAENLIGKKTCAIFGGVCDSELFGEVSAFFKKHDKGLFYWMTLTSHADYPESDIFNHRLKCTEYGLPAETDLCRNFSLHTQFFDQLADLIQRPEMKGTEVIIVGDHPPPVGNLNETFRYLKQGHVAWLNFKIK | not soluble
MATSKILLYYAFTPLSDPKAVQLWQRELCESLNLRGRILISTHGINGTVGGDIDDCKAYIKKTREYPGFNRMQFKWSEGGAEDFPKLSVKVRDEIVAFGAPDELKVDENGVVGGGVHLKPQQVNELVEARGDEVVFFDGRNAMEAQIGKFKDAVVPDVETTHDFIAEIESGKYDDLKDKPVVTYCTGGIRCEILSSLMINRGFKEVYQIDGGIVRYGEQFGNKGLWEGSLYVFDKRMHMEFGEDYKEVGHCIHCDTPTNKFEHCLNEDDCRELVLMCPDCFANVETRHCKRERCAAIAADFAEQGIDPLVTS | not soluble
MGSDKIHHHHHHMVNGNITQLSDMQIPENWGAYLAEKSTQNNAFFTSGVVQNVPQIAALLGAGKVANMPLFKPLADDDPQVPDDTTDLLVNKITTDLAQARKLGFDQAWSATDLSAELSGADPLSAIGDQVSDYWSHVYEKLLLQTLTGVFSSTSMKGVNQLDTTTDKTDTTFSLKNFNKARFLLGDRYKDLAIVAVHSDILRQLQDANLVDAKNNSTFVLNGNSNVPTAIQTPDAGDKIKGVQIVVDDSLPVDNGKYTSYLFAQGAVGYSELPVTNAVETNRDPLKNHGIDYLVNRRRFVFAPQGLSWNESNFVTKNPGKTYPSMTDLADGTNWSKVYDHKLIPMAQFVTSADAIVPSTTADPQTGK | not soluble
MRAHTLSRQLREGNLFAEQCPSREVLKHVTSRWGVLILVALRDGTHRFSDLRRKMGGVSEKMLAQSLQALEQDGFLNRVSYPVVPPHVEYSLTPLGEQVSDKVAALADWIELNLPQVLAQRERLSDGG | soluble
MSSHPLSISSLSPSYSHRPPGAEQHTVVAGRTSKSAREQCVQGQMVIMQPIRAFVDQHFRAFCQSVELYTISYFQMVPMNPELMHYPNQPHMMPGYPMINAYQQSYLQNPAQWTPEMLLCMQMQMQQMVPGTATNSTYMPPQSKNTVTPNATSPLSQISDRDSGNDTISPPLTSQNRYVFLLRGKKKSCAMFECLGGLYFMVQFVSRNT | not soluble
MTDNITDEAIIDKAQELHDKAYDKAVYERDEANGVHANQNNPEVLIFNDGPTDDEIREKLSWVVDRFRETLKPFPRDFDPLIDKIKAIEAAFGQEEDSFGDPDLGMIETSANYMAQWEGALSTNFNEKFLGPMPIIAANHGKLASYLRDHAEKMKSIYESGRQDALNIAEKGVEAIDAINDSNGKDLMIALAVLIAAGTLAGPALGVASAPLAVQLANAAVIAGSVLGGPFVEKGEEVPLGGDTVEEVMNNVRDALDASAKRIFEEEGYLLDALKKSEEEVFPQTSGNTDDHTALLPQQPKVFTATGEELTAGLVQFGSEDGTDGGGGDRGSYVGDDPPDNFEGSVFVPPEKKTATG | not soluble
MVNIPNFIDKVLSVNDTSNASLTHCIKEADIDGVIEECKDILSAQATMVEVQAPIAVCGDIHGQYTDLLRIFNRCSFPPDQNYLFLGDYVDRGRQQLEVICLLMAYKVRYPNGFFILRGNHECASINRTYGFYDECKRRYSLALYNEFQNLFNSLPLCAMISGRIFCMHGGLSPELVSWTQLAKIIRPFDPPNACLAMDLLWADPENNHTGWGKNSRGVSYIFGANVVKDFTEKMNIDLIARGHQVVQDGYEFFADKRLVTIFSAPKYCGEFDNNAGIMIVDERLIISFEILKPAMREVKIQARAAAKNKSTRSILVSSRGPKSKKG | not soluble
MFDFIGNGSAFNTERGNNSAFIKKNSSMILVDCGGTVFHRIKQLNLLQDIKNLYIIITHTHPDHIGSLGDLIFYCYYILKFKPTIIYPNKDIITDFFNIIGVGDEMYELVSDNKVNLTAPEFGDLNIEFIPASHVGVIPAYGFLIGMSDNLVYYSGDGNKLPEKNYKMAGDPLEHHHHHH | not soluble
